The record followed here is article PMC7568338 (Proceedings of the National Academy of Sciences of the …, 2020).

The data set deals with the molecule itself. In words: SEC.

Residue numbers refer to the chain shown, from its start.

B1: ^D645CClpA (enzyme, E. coli, UniProt P0ABH9 1-749, looked up)
chain: MLNQELELSLNMAFARAREHRHEFMTVEHLLLALLSNPSAREALEASSVDLVALRQELEAFIEQTTPVLPASEEERDTQPTLSFQRVLQRAVFHVQSSGRNEVTGANVLVAIFSEQESQAAYLLRKHEVSRLDVVNFISHGTRKDEPTQSSDPGSQPNSEEQAGGEERMENFTTNLNQLARVGGIDPLIGREKELERAIQVLSRRRKNNPLLVGESGVGKTAIAEGLAWRIVQGDVPEVMADSTIYSLDIGSLLAGTKYRGDFEKRFKALLKQLEQDTNSILFIDEIHTIIGAGAASGGQVDAANLIKPLLSSGKIRVIGSTTYQEFSNIFEKDRALARRFQKIDITEPSIEETVQIINGLKPKYEAHHDVRYTAKAVRAAVELAVKYINDRHLPDKAIDVIDEAGARARLMPVSKRKKTVNVADIESVVARIARIPEKSVSQSDRDTLKNLGDRLKMLVFGQDKAIEALTEAIKMARAGLGHEHKPVGSFLFAGPTGVGKTEVTVQLSKALGIELLRFDMSEYMERHTVSRLIGAPPGYVGFDQGGLLTDAVIKHPHAVLLLDEIEKAHPDVFNILLQVMDNGTLTDNNGRKADFRNVVLVMTTNAGVRETERKSIGLIHQDNSTDAMEEIKKIFTPEFRNRLCNIIWFDHLSTDVIHQVVDKFIVELQVQLDQKGVSLEVSQEARNWLAEKGYDRAMGARPMARVIQDNLKKPLANELLFGSLVDGGQVTVALDKEKNELTYGFQSA
For B1, the binding result is reported as “binds”.

B2: ^Q709CClpA (enzyme, E. coli, UniProt P0ABH9 1-749, looked up)
chain: B1 chain with C645D, Q709C
Take B2: the binding result is “binds”.
